Tests used:
[1] = molecular target: T1, recombinant human neonatal Fc receptor (FcRn), biotinylated (human, UniProt P55899 24-297, site-directed biotinylation at AviTag); experiment: SPR (Biacore T200), 37 C, pH 6.0, biotin-captured FcRn, steady-state affinity
T1 construct: also called human FcRn
Protocol: (§1) Sensor chips were pre-equilibrated in HBS-P+ running buffer for 12 hours prior to the first measurement and the detectors were normalized using BIAnormalization solution (70% w/w glycerol) according to the manufacturer's instructions.
(§2) Interaction analysis of FcRn binding was performed at pH 6.0 in PBS/0.05% Tween 20; analytes and ligands were diluted in the same buffer. […] Ligand-free surfaces in FC1 and FC3 were used as references for response signals (FC2-1, FC4-3). Interaction analysis of CD64, CD32, and murine CD16-2 binding was performed in HBS-P+ buffer and analytes and ligands were diluted in the same buffer. Biotinylated Fcγ-Receptors were captured to a density of approximately 15 to 30 RU (FC2, FC3, and FC4) before increasing concentrations (500 nM to 4000 nM) of antibody were injected, using the single-cycle kinetic mode (FC1-FC4) at a flow rate of 40 μL/min for 100 seconds followed by dissociation for 90 seconds. A zero-concentration cycle and ligand-free surface in FC1 was used for referencing of response signals (FC2-1, FC3-1, and FC4-1). Sensor chip surfaces were prepared and regenerated before and after each measurement using Biotin Capture reagent (Biotin CAPture Kit, GE Healthcare) and 6 M guanidine-HCl, 0.25 M NaOH, respectively.
(§3) Binding affinities were determined by fitting data using the steady state affinity model of the Biacore T200 Evaluation software (v3.1).

[2] = molecular target: T2, recombinant cynomolgus neonatal Fc receptor (FcRn), biotinylated (cynomolgus, UniProt Q8SPV9 24-297, limits assumed, site-directed biotinylation at AviTag); experiment: as above
T2 construct: also called cynomolgus FcRn
T2 sequence (Q8SPV9 24-297 limits assumed, form in doubt): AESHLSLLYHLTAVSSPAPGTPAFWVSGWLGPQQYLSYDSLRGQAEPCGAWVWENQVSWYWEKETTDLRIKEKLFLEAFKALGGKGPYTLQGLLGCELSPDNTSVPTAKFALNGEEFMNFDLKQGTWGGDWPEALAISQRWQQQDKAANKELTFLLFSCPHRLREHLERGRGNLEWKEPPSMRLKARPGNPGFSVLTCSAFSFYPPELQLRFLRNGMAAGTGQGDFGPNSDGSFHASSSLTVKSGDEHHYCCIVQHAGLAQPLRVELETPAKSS
Protocol: as §1, §2, §3

[3] = molecular target: T3, human CD16A (158F) on transfected CHO cells (cAg_34) (human, UniProt P08637 17-254); experiment: flow cytometry on huCD16A-transfected CHO cells (cAg_34), one-site fit of MFI, mean of 3 experiments
T3 construct: Exact cell-anchored construct not described; also called huCD16A
T3 sequence (P08637 17-254 limits assumed): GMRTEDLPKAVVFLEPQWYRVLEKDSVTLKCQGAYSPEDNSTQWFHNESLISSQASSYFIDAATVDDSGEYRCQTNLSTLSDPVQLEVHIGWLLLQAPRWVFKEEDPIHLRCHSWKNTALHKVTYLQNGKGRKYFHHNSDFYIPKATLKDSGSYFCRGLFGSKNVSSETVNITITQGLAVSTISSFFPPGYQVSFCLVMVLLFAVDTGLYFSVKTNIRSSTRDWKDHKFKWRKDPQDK
Protocol: After washing in FACS buffer, cells were incubated in 50 μL FACS buffer without antibodies or with titrated antibodies starting at a concentration of 100 μg/mL followed by ten 5-fold serial dilutions for 30 min on ice in the dark. After washing twice, cells were incubated with APC-conjugated goat anti-human IgG (H+L)-APC (Dianova, cat. 109-136-088) for 30 min on ice in the dark. […] After washing, binding was measured by flow cytometry and mean fluorescence intensities (MFI) of cell samples were calculated and corrected for background staining using control cells stained with secondary antibodies only.
Equilibrium dissociation constants (KD) of antibody binding were calculated by plotting MFI values and fitting a non-linear regression model for one-site binding to hyperbolic dose-response curves using GraphPad Prism.

[4] = molecular target: T4, recombinant murine FcγRI (CD64), biotinylated (murine, UniProt P26151 25-297, limits assumed, site-directed biotinylation at AviTag); experiment: SPR (Biacore), 37 °C, biotin-captured murine CD64 as ligand, steady-state plot; left-hand column, no heading on the sheet
T4 construct: also called murine CD64; mouse CD64
T4 sequence (looked up): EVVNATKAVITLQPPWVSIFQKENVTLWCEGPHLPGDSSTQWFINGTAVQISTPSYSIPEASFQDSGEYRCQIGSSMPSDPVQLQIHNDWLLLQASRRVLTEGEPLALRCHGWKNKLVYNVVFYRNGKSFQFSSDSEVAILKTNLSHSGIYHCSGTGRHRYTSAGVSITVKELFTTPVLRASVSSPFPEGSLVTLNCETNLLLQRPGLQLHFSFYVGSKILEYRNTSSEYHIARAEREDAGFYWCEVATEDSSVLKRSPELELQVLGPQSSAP
Protocol: (§4) FIG. 20: SPR interaction analysis of antibody binding to CD64 and murine CD16-2. […] Affinity parameters were evaluated for interaction with receptors using a Steady State Binding model.

[5] = molecular target: T5, recombinant human FcγRIIB (CD32B), biotinylated (human, UniProt P31994 43-217, limits assumed, site-directed biotinylation at AviTag); experiment: SPR (Biacore), 37 °C, biotin-captured human CD32B as ligand, steady-state plot; left-hand column, no heading on the sheet
T5 construct: also called human CD32B
T5 sequence (looked up): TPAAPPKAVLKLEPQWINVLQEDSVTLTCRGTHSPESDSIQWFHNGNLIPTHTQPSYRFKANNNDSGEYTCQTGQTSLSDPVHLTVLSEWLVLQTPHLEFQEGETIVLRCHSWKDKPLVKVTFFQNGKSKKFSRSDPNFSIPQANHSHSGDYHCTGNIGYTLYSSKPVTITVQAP
Protocol: (§5) FIG. 21: SPR interaction analysis of antibody binding to CD32. […] Affinity parameters were evaluated for interaction with receptors using a Steady State Binding model.

[6] = molecular target: T6, recombinant human FcγRIIC (CD32C), biotinylated (human, UniProt P31995 43-223, limits assumed, site-directed biotinylation at AviTag); experiment: SPR (Biacore), 37 °C, biotin-captured human CD32C as ligand, steady-state plot; left-hand column, no heading on the sheet
T6 construct: also called human CD32C
T6 sequence (looked up): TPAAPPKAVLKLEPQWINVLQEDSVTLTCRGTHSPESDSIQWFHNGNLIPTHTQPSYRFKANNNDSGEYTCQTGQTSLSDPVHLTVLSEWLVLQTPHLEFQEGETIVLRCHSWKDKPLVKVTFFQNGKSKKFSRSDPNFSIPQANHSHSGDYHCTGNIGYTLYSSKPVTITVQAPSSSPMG
Protocol: as §5

[7] = molecular target: T7, recombinant murine FcγRIV (CD16-2), biotinylated (murine, UniProt A0A0B4J1G0 21-203, biotinylated (site not stated)); experiment: SPR (Biacore), 37 °C, biotin-captured murine CD16-2 as ligand, steady-state plot; left-hand column, no heading on the sheet
T7 construct: also called murine CD16-2; mouse CD16-2; not shown: biotinylation or purification tag (AviTag according to our card)
T7 sequence: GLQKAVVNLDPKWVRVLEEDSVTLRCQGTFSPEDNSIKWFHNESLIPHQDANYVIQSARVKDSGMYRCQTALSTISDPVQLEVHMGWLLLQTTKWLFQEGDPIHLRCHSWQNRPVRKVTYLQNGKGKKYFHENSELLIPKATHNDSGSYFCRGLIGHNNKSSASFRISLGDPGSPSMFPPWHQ
Protocol: as §4

T1 sequence (P55899 24-297 limits assumed, form in doubt): as the sequence (Q8SPV9 24-297 limits assumed, form in doubt) above, with D39N, Q44E, S99G, G189S, N190S, M217L, T269S counted along it

B1: scFv-IgAb_268 (CD123-1xCD16a1) (bispecific antibody)
heavy: QVQLQQSGAEVKKPGASVKVSCKASGYTFTDYYMKWVKQSHGKSLEWMGDIIPSNGATFYNQKFKGKATLTVDRSTSTAYMELSSLRSEDTAVYYCARSHLLRASWFAYWGQGTLVTVSSASTKGPSVFPLAPSSKSTSGGTAALGCLVKDYFPEPVTVSWNSGALTSGVHTFPAVLQSSGLYSLSSVVTVPSSSLGTQTYICNVNHKPSNTKVDKKVEPKSCDKTHTCPPCPAPEFEGGPSVFLFPPKPKDTLMISRTPEVTCVVVAVSHEDPEVKFNWYVDGVEVHNAKTKPREEQYNSTYRVVSVLTVLHQDWLNGKEYKCKVSNKALPAPIEKTISKAKGQPREPQVYTLPPSREEMTKNQVSLTCLVKGFYPSDIAVEWESNGQPENNYKTTPPVLDSDGSFFLYSKLTVDKSRWQQGNVFSCSVMHEALHNHYTQKSLSLSPGGGGGSGGGGSGGGGSGGGGSGGGGSGGGGSSYELTQPLSVSVALGQTARITCGGNNIGSKSVHWYQQKPGQAPVLVIYQDKKRPSGIPERFSGSNSGNTATLTISRAQAGDEADYYCQVWDDYIVLFGCGTKLTVLGGSGGSGGSGGSGGSGGSGGSQVQLVQSGAEVKKPGASVKVSCKASGYTFTNYYMQWVRQAPGQCLEWMGIINPSGGVTSYAQKFQGRVTMTRDTSTSTVYMELSSLRSEDTAVYYCARGSAYYYDFADYWGQGTLVTVSS
light: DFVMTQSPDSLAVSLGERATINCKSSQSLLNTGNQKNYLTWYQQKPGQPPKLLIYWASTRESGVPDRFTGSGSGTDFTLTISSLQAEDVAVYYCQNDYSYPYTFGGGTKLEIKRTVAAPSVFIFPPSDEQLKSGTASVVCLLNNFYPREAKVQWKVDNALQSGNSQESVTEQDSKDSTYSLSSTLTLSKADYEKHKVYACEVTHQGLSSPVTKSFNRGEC
notes: also called AFM28; CD123xCD16A scFv-IgAb_268
In the case of B1, the Kd [1] is reported as 364 nM, the Kd [2] is reported as 238 nM and the Kd [3] is reported as 16.3 nM. B1: no binding (tested: 2e-6 M (last point visible)) [4]; no binding [5]; no binding [6]. B1: no binding [7].

From patent US20260070986A1 (AFFIMED, published 2026)
